Measured values from IntAct's records for PubMed 31515488.

B1: Fibronectin type III and SPRY domain-containing protein 2 (Homo sapiens), A1L4K1 (parent)
chain: MEEESGEELGLDRSTPKDFHFYHMDLYDSEDRLHLFPEENTRMRKVVQAEMANESRGAGDGKAQRDLQEEVDELVHLYGLEDDHELGDEFVDENIPRTGVSEYPPYMMKRRDPAREQRDWRLSGEAAEAEDLGFGGWGSAGQCQDLREAYRYTHGRASEEYECYVIPEEEDEEEAADVFCVTCKTPIRAFQKVFDEHKEHEVIPLNEALESAKDEIHKNMYKLEKQIIEMENFANHLEEVFITVEENFGKQEQNFESHYNEILETLAQKYEEKIQALGEKKKEKLEALYGQLVSCGENLDTCKELMETIEEMCHEEKVDFIKDAVAMADRLGKFLKTKTDVEISAQPEFEDQTLDFSDVEQLMGSINTIPAPSAPVINPQVPNSATGSSVRVCWSLYSDDTVESYQLSYRPVQDSSPGTDQAEFTVTVKETYCSVTNLVPNTQYEFWVTAHNRAGPSPSSERAVYMTAPSPPIIKTKEIRSCEEAVLICWESGNLNPVDSYTVELTQAESPEASGVTESVVGIPTCESVVQLQPGRSYIIYVRALNMGGPSVRSEPATVHTIGSYFRLNKDTCHPWLTISEDGLTAVRSERRTPARELSPSDTHFTRCVAVMGNLIPVRGHHYWEVEVDEHLDYRVGVAFADVRKQEDLGANCLSWCMRHTFASSRHKYEFLHNRTTPDIRITVPPKKIGILLDYEHSKLSFFNVDLSQHLYTFSCQLHEFVHPCFSLEKPGCLKVHNGISMPKHVTFY
partner: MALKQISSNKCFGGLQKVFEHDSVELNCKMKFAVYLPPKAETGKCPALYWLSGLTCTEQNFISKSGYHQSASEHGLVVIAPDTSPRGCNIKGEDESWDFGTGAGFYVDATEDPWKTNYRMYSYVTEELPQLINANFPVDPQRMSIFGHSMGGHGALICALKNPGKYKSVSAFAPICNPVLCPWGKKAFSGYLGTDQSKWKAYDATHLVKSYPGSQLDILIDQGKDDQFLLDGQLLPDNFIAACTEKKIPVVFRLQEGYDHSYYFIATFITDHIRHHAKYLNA
B2: Prolyl 4-hydroxylase subunit alpha-3 (Homo sapiens), Q7Z4N8 (parent)
chain: MGPGARLAALLAVLALGTGDPERAAARGDTFSALTSVARALAPERRLLGLLRRYLRGEEARLRDLTRFYDKVLSLHEDSTTPVANPLLAFTLIKRLQSDWRNVVHSLEASENIRALKDGYEKVEQDLPAFEDLEGAARALMRLQDVYMLNVKGLARGVFQRVTGSAITDLYSPKRLFSLTGDDCFQVGKVAYDMGDYYHAIPWLEEAVSLFRGSYGEWKTEDEASLEDALDHLAFAYFRAGNVSCALSLSREFLLYSPDNKRMARNVLKYERLLAESPNHVVAEAVIQRPNIPHLQTRDTYEGLCQTLGSQPTLYQIPSLYCSYETNSNAYLLLQPIRKEVIHLEPYIALYHDFVSDSEAQKIRELAEPWLQRSVVASGEKQLQVEYRISKSAWLKDTVDPKLVTLNHRIAALTGLDVRPPYAEYLQVVNYGIGGHYEPHFDHATSPSSPLYRMKSGNRVATFMIYLSSVEAGGATAFIYANLSVPVVRNAALFWWNLHRSGEGDSDTLHAGCPVLVGDKWVANKWIHEYGQEFRRPCSSSPED
B3: THAP domain-containing protein 7 (Homo sapiens), Q9BT49 (parent)
chain: MPRHCSAAGCCTRDTRETRNRGISFHRLPKKDNPRRGLWLANCQRLDPSGQGLWDPASEYIYFCSKHFEEDCFELVGISGYHRLKEGAVPTIFESFSKLRRTTKTKGHSYPPGPAEVSRLRRCRKRCSEGRGPTTPFSPPPPADVTCFPVEEASAPATLPASPAGRLEPGLSSPFSDLLGPLGAQADEAGCSAQPSPERQPSPLEPRPVSPSAYMLRLPPPAGAYIQNEHSYQVGSALLWKRRAEAALDALDKAQRQLQACKRREQRLRLRLTKLQQERAREKRAQADARQTLKEHVQDFAMQLSSSMA
partner: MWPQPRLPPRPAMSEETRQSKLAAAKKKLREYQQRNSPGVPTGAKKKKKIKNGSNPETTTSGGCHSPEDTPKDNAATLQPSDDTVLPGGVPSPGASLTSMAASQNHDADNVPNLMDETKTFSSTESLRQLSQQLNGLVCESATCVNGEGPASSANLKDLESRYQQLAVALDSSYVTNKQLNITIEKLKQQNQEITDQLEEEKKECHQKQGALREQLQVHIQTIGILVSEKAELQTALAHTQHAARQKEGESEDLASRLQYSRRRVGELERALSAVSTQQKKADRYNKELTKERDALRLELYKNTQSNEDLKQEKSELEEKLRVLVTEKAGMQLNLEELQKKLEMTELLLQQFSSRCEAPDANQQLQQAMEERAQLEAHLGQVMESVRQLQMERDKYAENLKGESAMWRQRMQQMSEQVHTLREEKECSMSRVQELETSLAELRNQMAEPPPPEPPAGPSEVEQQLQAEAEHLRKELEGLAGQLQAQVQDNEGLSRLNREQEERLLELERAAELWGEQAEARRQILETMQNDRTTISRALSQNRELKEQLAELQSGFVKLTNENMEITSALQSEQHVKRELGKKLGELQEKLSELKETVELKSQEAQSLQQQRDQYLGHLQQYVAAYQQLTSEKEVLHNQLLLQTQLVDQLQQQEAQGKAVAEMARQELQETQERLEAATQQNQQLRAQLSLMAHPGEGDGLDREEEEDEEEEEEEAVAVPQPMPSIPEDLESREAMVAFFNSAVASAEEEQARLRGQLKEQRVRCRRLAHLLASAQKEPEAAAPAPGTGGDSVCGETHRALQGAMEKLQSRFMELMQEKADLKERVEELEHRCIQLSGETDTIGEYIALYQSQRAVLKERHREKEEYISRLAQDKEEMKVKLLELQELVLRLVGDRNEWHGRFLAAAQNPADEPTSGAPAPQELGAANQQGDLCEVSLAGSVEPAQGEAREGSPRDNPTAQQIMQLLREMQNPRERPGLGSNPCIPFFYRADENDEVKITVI
B4: Zinc finger and BTB domain-containing protein 9 (Homo sapiens), Q96C00 (parent)
chain: METPTPLPPVPASPTCNPAPRTIQIEFPQHSSSLLESLNRHRLEGKFCDVSLLVQGRELRAHKAVLAAASPYFHDKLLLGDAPRLTLPSVIEADAFEGLLQLIYSGRLRLPLDALPAHLLVASGLQMWQVVDQCSEILRELETSGGGISARGGNSYHALLSTTSSTGGWCIRSSPFQTPVQSSASTESPASTESPVGGEGSELGEVLQIQVEEEEEEEEDDDDEDQGSATLSQTPQPQRVSGVFPRPHGPHPLPMTATPRKLPEGESAPLELPAPPALPPKIFYIKQEPFEPKEEISGSGTQPGGAKEETKVFSGGDTEGNGELGFLLPSGPGPTSGGGGPSWKPVDLHGNEILSGGGGPGGAGQAVHGPVKLGGTPPADGKRFGCLCGKRFAVKPKRDRHIMLTFSLRPFGCGICNKRFKLKHHLTEHMKTHAGALHACPHCGRRFRVHACFLRHRDLCKGQGWATAHWTYK
partner: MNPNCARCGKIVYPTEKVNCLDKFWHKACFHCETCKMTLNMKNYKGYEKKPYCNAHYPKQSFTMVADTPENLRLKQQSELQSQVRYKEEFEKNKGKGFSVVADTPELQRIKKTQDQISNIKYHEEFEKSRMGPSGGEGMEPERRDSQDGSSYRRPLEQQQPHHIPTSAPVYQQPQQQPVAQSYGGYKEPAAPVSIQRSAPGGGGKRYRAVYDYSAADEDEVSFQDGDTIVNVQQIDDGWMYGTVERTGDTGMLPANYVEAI
B5: Cyclin-dependent kinase 4 inhibitor C (Homo sapiens), P42773 (parent)
chain: MAEPWGNELASAAARGDLEQLTSLLQNNVNVNAQNGFGRTALQVMKLGNPEIARRLLLRGANPDLKDRTGFAVIHDAARAGFLDTLQTLLEFQADVNIEDNEGNLPLHLAAKEGHLRVVEFLVKHTASNVGHRNHKGDTACDLARLYGRNEVVSLMQANGAGGATNLQ

Variants of: B1
Conditions: with estd_human ESD

Variant	effect of a mutation on the interaction
E720K	with no effect

Variants of: B2
Conditions: with maga2_human MAGEA2, P43356
Chain of maga2_human MAGEA2, P43356 (P43356 whole entry): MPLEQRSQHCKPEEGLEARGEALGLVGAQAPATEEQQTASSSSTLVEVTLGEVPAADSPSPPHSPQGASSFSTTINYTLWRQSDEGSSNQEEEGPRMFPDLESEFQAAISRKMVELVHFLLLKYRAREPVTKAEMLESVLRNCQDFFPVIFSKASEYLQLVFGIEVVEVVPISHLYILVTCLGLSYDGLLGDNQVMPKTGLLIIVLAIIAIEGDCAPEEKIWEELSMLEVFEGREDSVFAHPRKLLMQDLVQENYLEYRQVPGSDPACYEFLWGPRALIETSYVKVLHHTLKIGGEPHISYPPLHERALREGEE

Variant	effect of a mutation on the interaction
S378L	disrupting interaction strength

Variants of: B2
Conditions: with nutm1_human NUTM1, Q86Y26
Chain of nutm1_human NUTM1, Q86Y26 (Q86Y26 whole entry): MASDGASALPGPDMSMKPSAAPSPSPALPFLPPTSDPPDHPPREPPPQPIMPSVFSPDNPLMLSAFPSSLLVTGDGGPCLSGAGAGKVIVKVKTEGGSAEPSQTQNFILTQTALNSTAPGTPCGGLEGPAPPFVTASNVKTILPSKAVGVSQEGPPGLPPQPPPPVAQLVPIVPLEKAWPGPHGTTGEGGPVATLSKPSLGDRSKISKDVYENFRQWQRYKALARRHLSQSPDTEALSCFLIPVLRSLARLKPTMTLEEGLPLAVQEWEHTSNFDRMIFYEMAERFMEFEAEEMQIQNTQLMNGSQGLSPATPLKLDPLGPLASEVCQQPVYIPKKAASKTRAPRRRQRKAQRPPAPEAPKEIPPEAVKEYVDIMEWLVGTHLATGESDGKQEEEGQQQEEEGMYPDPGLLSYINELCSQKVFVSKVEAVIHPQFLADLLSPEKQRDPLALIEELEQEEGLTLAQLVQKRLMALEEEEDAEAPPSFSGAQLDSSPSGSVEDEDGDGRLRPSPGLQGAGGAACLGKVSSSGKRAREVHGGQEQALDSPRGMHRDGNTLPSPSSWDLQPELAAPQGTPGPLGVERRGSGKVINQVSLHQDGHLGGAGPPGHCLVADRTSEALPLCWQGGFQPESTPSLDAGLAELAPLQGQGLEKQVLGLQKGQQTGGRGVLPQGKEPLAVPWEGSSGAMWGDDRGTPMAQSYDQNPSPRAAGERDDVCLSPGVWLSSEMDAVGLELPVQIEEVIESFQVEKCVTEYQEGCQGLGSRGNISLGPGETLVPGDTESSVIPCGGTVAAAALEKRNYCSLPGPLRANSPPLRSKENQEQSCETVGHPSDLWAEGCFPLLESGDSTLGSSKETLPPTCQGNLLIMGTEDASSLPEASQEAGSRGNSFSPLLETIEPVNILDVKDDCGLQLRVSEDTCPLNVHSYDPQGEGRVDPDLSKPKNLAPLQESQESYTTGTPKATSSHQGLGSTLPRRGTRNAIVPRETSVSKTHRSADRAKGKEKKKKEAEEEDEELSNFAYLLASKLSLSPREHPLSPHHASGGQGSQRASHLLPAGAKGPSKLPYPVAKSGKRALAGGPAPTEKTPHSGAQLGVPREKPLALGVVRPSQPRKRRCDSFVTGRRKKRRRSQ

Variant	effect of a mutation on the interaction
S378L	disrupting interaction strength

Variants of: B3
Conditions: with goga2_human GOLGA2, Q08379

Variant	effect of a mutation on the interaction
E168D	with no effect

Variants of: B4
Conditions: with lasp1_human LASP1, Q14847

Variant	effect of a mutation on the interaction
S173C	with no effect

Variants of: B5
Conditions: with cdk6_human CDK6, Q00534
Chain of cdk6_human CDK6, Q00534 (Q00534 whole entry): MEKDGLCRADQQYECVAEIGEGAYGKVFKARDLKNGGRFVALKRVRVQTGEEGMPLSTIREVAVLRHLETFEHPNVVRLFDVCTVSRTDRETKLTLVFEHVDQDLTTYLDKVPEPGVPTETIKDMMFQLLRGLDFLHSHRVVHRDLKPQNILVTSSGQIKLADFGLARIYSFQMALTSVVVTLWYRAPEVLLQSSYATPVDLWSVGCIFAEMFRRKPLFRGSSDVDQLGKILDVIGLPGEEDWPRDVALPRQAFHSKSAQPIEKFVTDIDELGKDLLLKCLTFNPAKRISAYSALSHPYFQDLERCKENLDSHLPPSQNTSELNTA

Variant	effect of a mutation on the interaction
R117Q	with no effect
V31L	with no effect

Variants of: B5
Conditions: with htf4_human TCF12, Q99081
Chain of htf4_human TCF12, Q99081 (Q99081 whole entry): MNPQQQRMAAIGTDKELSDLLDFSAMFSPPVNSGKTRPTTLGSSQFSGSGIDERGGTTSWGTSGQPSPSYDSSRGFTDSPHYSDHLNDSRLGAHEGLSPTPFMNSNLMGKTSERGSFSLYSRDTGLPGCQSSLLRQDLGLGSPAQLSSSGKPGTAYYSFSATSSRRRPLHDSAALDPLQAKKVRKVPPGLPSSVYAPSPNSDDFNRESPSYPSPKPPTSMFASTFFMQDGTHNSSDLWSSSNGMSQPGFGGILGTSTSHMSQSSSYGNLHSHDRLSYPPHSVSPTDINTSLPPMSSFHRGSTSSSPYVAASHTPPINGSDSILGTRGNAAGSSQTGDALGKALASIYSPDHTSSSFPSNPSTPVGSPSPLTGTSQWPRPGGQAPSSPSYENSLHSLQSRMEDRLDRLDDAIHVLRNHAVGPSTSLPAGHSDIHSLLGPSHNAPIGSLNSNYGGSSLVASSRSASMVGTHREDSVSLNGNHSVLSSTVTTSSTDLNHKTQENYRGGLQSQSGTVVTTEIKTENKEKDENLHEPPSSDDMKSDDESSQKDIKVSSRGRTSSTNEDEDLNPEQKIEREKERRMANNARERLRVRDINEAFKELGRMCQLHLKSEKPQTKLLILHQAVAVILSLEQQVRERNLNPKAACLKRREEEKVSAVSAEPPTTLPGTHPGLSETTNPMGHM

Variant	effect of a mutation on the interaction
V31L	disrupting interaction strength

Variants of: B5
Conditions: with cdk4_human CDK4, P11802

Variant	effect of a mutation on the interaction
V31L	with no effect

Variants of: B5
Conditions: with itf2_human TCF4, P15884
Chain of itf2_human TCF4, P15884 (P15884 whole entry): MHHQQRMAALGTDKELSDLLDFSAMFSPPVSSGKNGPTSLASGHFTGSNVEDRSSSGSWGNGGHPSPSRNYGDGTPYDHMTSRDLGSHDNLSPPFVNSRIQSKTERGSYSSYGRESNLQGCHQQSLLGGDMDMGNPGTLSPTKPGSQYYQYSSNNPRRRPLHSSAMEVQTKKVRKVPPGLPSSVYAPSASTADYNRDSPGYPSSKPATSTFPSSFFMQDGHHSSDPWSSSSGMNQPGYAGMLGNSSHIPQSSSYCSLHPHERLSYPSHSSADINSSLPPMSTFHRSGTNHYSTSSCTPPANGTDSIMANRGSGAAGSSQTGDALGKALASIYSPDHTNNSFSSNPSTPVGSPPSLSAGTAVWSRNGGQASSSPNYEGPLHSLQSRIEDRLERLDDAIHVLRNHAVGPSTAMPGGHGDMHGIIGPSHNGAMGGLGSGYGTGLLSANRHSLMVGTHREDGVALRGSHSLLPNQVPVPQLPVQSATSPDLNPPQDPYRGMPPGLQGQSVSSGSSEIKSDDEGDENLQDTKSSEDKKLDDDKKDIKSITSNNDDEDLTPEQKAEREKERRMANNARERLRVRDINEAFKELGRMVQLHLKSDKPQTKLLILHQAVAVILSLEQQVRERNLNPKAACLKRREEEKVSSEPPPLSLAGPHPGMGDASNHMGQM

Variant	effect of a mutation on the interaction
V31L	disrupting interaction strength

Variants of: B5
Conditions: with nagk_human NAGK

Variant	effect of a mutation on the interaction
V31L	disrupting interaction strength

Variants of: B5
Conditions: with sahh2_human AHCYL1, O43865
Chain of sahh2_human AHCYL1, O43865 (O43865 whole entry): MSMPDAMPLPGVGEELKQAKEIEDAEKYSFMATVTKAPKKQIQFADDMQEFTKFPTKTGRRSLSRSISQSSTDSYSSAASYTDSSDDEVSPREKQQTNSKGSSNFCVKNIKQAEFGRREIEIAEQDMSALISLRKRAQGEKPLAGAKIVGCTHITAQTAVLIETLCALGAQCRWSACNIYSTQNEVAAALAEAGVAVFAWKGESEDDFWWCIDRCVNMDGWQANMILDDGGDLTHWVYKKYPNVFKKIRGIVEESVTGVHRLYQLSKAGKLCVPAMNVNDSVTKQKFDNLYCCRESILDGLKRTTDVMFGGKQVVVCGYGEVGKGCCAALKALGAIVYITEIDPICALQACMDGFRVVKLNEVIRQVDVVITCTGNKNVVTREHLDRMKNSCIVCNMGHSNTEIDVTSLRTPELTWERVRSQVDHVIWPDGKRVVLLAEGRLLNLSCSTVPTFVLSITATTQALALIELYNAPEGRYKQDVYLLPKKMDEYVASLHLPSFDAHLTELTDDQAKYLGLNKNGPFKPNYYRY

Variant	effect of a mutation on the interaction
V31L	disrupting interaction strength
